Results from patent publication US20030180295A1, “Angiocidin: a Cys-Ser-Val-Thr-Cys-Gly specific tumor cell adhesion receptor” (Philadelphia Health and Education Corporation, priority 1999, published 2003).
No end group written: not given here. *: point of attachment. Acm = CC(=O)NC*

Experiments:
receptor-TSP-1 complex [1] = molecular target: T1, receptor-TSP-1 complex (Homo sapiens, UniProt P55036, INS254GER); experiment: Affinity Sensor System: peptide competition of receptor binding to immobilized TSP-1; settings: 10 fold molar excess of peptide
T1 construct: Full length cDNA cloned in the PBK-CMV vector was used as a template; 6xHis (pTrcHisA leader) (N); made in house; host or cells: bacteria (pTrcHisA vector)
T1 sequence (P55036 with tags, fused parts or gaps INS254GER): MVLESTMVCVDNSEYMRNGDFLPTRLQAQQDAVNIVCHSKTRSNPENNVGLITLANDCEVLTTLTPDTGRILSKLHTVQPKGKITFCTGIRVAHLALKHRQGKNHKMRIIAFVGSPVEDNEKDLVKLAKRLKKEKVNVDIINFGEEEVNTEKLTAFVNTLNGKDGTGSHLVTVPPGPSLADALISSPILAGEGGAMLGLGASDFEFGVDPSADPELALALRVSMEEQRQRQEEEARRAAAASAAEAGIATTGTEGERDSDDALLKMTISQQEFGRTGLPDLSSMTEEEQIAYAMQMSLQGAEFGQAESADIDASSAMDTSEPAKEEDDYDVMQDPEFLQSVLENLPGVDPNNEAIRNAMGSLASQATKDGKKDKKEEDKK
Procedure: (§1) Binding of undenatured (in the ligand blot protocol above, the receptor is denatured by SDS) recombinant receptor to TSP-1 was evaluated using the Affinity Sensor System, Cambridge, UK. This is an optical binding method that uses a cuvette to which either ligand or receptor is covalently coupled. A laser beam is used to detect bound proteins to the protein-derivatized cuvette surface. This method is highly sensitive and measures both the association and dissociation rate constants for ligand receptor interactions. The instrument assumes that one molecule of receptor binds one molecule of TSP-1 and calculates the dissociation constant (KD) according to the following relationships:
(§2) About 1 μg of TSP-1 was coupled to the cuvette through its amino groups to COOH groups on the cuvette surface. Unreacted groups on the cuvette surface were then blocked with ethanolamine and albumin. […] A dissociation constant of […] was calculated from a plot of the pseudo first order rate constant for association versus the concentration of the receptor, as shown in FIG. 7. Instrument response vs time readings shown in FIG. 8, where the instrument response is proportional to the concentration of receptor-TSP-1 complex, were used to plot the data points on FIG. 7.
(§3) […] The peptides used were Val-Cys-His-Ser-Lys-Thr-Arg (SEQ ID NO: 8), Val-Cys(Acm)-His-Ser-Lys-Thr-Arg (SEQ ID NO: 9), and Pro-His-Ser-Arg-Asn (SEQ ID NO: 10). The first two peptides are derived from the binding portion of the receptor, where it interacts with the Cys-Ser-Val-Thr-Cys-Gly (SEQ ID NO: 1) portion of the TSP-1 protein. The third peptide is a control.

receptor = molecular target: T2, receptor (Homo sapiens, UniProt P55036, INS254GER); experiment: Affinity Sensor System: receptor binding to TSP-1 and Cys(Acm)-Ser-Val-Thr-Cys(Acm)-Gly; settings: Example 8, FIG. 11
T2 construct: Full length cDNA cloned in the PBK-CMV vector was used as a template; 6xHis (pTrcHisA leader) (N); made in house; host or cells: bacteria (pTrcHisA vector)
T2 sequence (P55036 with tags, fused parts or gaps INS254GER): T1 sequence (P55036 with tags, fused parts or gaps INS254GER)
Procedure: as §1
The methodology set forth in Example 6 was followed except that TSP-1 and Cys(Acm)-Ser-Val-Thr-Cys(Acm)-Gly (SEQ ID NO: 6) were immobilized on cuvettes and the receptor was added to the cuvettes. The Acm version of the peptide was used to increase its stability in the experiment.

[2] = molecular target: T3, biotin-angiocidin complex binding to TSP-1 (Homo sapiens, UniProt P55036, INS254GER); experiment: Biotin-avidin receptor binding assay: competition; settings: Example 25, peptide 1 mg/ml, FIG. 32
T3 sequence (P55036 with tags, fused parts or gaps INS254GER): T1 sequence (P55036 with tags, fused parts or gaps INS254GER)
Procedure: In the following experiments, TSP-1 was covalently bound to a substrate, biotinylated angiocidin was added to the plate, and avidin-peroxidase was added to measure how much biotinylated angiocidin was attached to the TSP-1. The avidin-peroxidase was measured using a spectrophotometer at an absorbance of 450 nm.
Free angiocidin was added to the system to compete with the biotinylated angiocid in. […] Immobilized BSA was used as a negative control.
The TSP-1 peptide Cys-Ser-Val-Thr-Cys-Gly (SEQ ID NO: 1) was added to the system to compete with the TSP-1 on the plate for binding with the biotinylated angiocidin. The scrambled peptide Val-Cys-Thr-Gly-Ser-Cys (SEQ ID NO: 15) was used as a negative control and had no effect.
The avidin-biotin system discussed above was used to evaluate the competitive effect of various peptides on the binding of TSP-1 and angiocidin. […] The scrambled peptide Val-Cys-Thr-Gly-Ser-Cys-Gly (SEQ ID NO: 21) and the d-orientation peptide d-Cys-Ser-Val-Thr-Cys-Gly (SEQ ID NO: 22) were used as negative controls.

[3] = test system: Bovine aortic endothelial cells (BAEC); experiment: ALAMAR BLUE cell viability assay; type: cell-based; settings: TSP-1 at 20 μg/ml and 5 μg/ml
Procedure: (§4) Bovine aortic endothelial cells (BAEC), human umbilical vein endothelial cells (HUVEC), fibroblast cells, A549 human lung carcinoma cells (A549), MDA-MB231 human breast carcinoma cells (MB231), MCF7 human breast carcinoma cells (MCF7) were treated with 37 μg/ml of receptor, or buffer alone, for 24 hours. Viability of the cells was measured using the ALAMAR BLUE™ assay, which measures the capacity of cells to metabolize the ALAMAR BLUE™ dye. The ALAMAR BLUE™ assay (available from Biosource International, Camarillo, Calif.) quantitatively measures the proliferation of cell lines and can establish the relative cytotoxicity of chemical agents. The assay incorporates a fluorometric/colorimetric growth indicator based on detection of metabolic activity. The system incorporates an oxidation-reduction (redox) indicator that both fluoresces and changes color in response to chemical reduction of growth medium resulting from cell growth. This causes the redox indicator to change from its oxidized, non-fluorescent, blue form to its reduced, fluorescent, red form. Data can be collected using either fluorescence-based instrumentation (530-560 nm excitation wavelength and 590 nm emission wavelength) or absorbance-based instrumentation (570 nm and 600 nm).
BAEC and BSM cells were treated with increasing concentrations of angiocidin (0, 0.625, 1.25, 2.5, 5, 15, 26 and 37 μg/ml) for 24 hours. Cell viability was measured using the ALAMAR BLUE Tm assay. […] In contrast, BSM cells are unaffected.
The methods of Example 21 were followed, except BAEC cells were used. Additionally, TSP-1 was added at both 20 μg/ml and 5 μg/ml.
As discussed in Example 19 above, angiocidin was added to BAEC cells. Fragments of angiocidin were added as well. […] GST was used as a negative control. V36-R42, the active site of the antisecretory factor, had no effect, illustrating that angiocidin plays a different role from antisecretory factor.
Bovine aortic endothelial cells (BAEC) were cultured overnight in serum-free media containing either 37 μg/ml his-tagged angiocidin or his-tagged GST. Both angiocidin and GST were expressed in bacteria transformed with the pTrcHisA expression vector and purified on nickel affinity chromatography under non-denaturing conditions. Viability was measured by the ALAMAR BLUE™ assay.
This study examined the effect of anti-angiocidin antibody on angiocidin-mediated inhibition of BAEC viability. BAEC were cultured overnight in serum-free media containing either 5 μg/ml angiocidin, 5 μg/ml angiocidin plus 100 μg/ml control IgG, or 5 μg/ml angiocidin plus 100 μg/ml anti-angiocidin IgG. Viability was measured using the ALAMAR BLUE™ assay, described above.
The endothelial cells (BAEC) were incubated overnight 37 μg/ml of the angiocidin, fragments, and GST. Viability was measured using the ALAMAR BLUE™ assay.

[4] = test system: human umbilical vein endothelial cells (HUVEC); experiment: ALAMAR BLUE cell viability assay; type: cell-based
Procedure: as §4
Similarly, the effect of receptor on viability of BAEC cells was compared to mouse Lewis lung carcinoma cells, using the same method.
The effect of angiocidin on HUVEC cell viability was evaluated, and FGF and TSP-1 were added to determine whether they ameliorated the angiocidin effect on cell viability. FGF (Fibroblast Growth Factor) is an endothelial cell mitogen, which promotes cell growth. […] TSP-1 was expected to reverse the inhibition of angiocidin; however, quantities added may have been insufficient to provide the correct molar ratio.

TSP-1 = TSP-1 (Homo sapiens, UniProt P07996); experiment: Affinity Sensor System (resonant mirror biosensor): binding to TSP-1 coupled to cuvette; settings: peptide alone, TSP-1 immobilized in cuvette
Chain of TSP-1 (P07996 19-1170): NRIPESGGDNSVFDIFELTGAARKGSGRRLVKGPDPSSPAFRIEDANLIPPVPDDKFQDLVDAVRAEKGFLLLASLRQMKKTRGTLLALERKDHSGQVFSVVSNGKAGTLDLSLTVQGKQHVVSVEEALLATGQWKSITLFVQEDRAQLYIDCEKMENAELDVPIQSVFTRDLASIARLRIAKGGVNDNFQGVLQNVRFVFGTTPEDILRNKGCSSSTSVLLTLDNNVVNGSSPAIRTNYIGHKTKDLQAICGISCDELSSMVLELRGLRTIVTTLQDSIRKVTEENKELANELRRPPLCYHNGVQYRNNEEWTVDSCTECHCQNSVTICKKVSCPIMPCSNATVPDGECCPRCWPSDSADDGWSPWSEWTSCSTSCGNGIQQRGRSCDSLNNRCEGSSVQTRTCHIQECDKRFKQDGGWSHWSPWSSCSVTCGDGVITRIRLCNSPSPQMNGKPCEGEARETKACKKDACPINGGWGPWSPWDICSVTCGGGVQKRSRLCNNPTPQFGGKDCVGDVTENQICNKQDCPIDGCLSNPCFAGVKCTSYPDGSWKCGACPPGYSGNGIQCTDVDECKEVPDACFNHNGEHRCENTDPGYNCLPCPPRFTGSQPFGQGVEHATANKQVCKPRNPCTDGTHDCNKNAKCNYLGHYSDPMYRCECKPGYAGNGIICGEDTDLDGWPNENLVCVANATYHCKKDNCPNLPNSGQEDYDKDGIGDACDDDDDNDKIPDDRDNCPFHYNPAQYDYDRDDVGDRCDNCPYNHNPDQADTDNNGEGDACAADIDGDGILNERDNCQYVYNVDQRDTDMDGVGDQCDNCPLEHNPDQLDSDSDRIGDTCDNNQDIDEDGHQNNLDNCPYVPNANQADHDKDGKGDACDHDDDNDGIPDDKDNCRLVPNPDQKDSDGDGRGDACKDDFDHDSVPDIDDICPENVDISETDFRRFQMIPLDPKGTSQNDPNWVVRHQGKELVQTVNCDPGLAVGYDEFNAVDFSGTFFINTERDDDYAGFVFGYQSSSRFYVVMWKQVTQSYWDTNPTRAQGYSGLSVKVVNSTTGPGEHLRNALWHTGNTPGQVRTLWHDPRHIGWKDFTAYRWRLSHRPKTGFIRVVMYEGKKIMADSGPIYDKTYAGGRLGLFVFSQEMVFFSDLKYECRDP
Procedure: as §1
1) kass[R][TSP-1]=kdiss[R-TSP-1] at equilibrium, where kass is the second order rate constant for association and kdiss is the first order rate constant for dissociation
2) KD=[R][TSP-1]/[R-TSP-1]=kdiss/kass
3) [R-TSP-1]t=[R-TSP-1]eq[1-exp(-kont)], where the instrument response measure in arc seconds is proportional to receptor-TSP-1 complex R-TSP-1].
4) kon=kass[L]+kdiss where kon is the pseudo-first order rate constant for receptor TSP-1 interaction.
as §2, §3

receptor-TSP-1 complex [5] = experiment: Affinity Sensor System: peptide competition of receptor binding to immobilized TSP-1; settings: peptide:receptor 1000 and 100 molar ratio
Procedure: as §1, §2, §3

B16-F10 Melanoma Cells = experiment: Cell adhesion to immobilized receptor peptides; type: cell-based, mouse; settings: Example 12, FIG. 14
Procedure: For the adhesion assay, in a 96 well plate, duplicate wells were covered with either TSP-1 (40 μg/ml), fibronectin (40 μg/ml), or and 1% bovine serum albumin (BSA). The wells were dried out overnight and then blocked with BSA. 100 μl of a suspension containing 2×10^5 cells were plated in the protein covered wells and incubated at 37^□ C. for 20 minutes to 1 hour. The non-adherent cells were removed and the wells were washed with a Hepes buffer. The adherent cells were fixed with 2.5% glutaraldehyde for 10 minutes and stained with 0.2% Giemsa. The stain was washed off and the cells were counted in a field of 1 mm square. Cells adhering to BSA were considered background while cells adhering to fibronectin were the positive control.
The method of Example 12 was followed except the receptor peptides Val-Cys-His-Ser-Lys-Thr-Arg (SEQ ID NO: 8) and Val-Cys(Acm)-His-Ser-Lys-Thr-Arg (SEQ ID NO: […]) were immobilized on the plates. TSP-1 and fibronectin were also immobilized on plates, as well as negative control peptides (Ala-Ser-Val-Thr-Ala-Arg (SEQ ID NO: 11) and Pro-His-Ser-Arg-Asn (SEQ ID NO: 10)) and bovine serum albumin. […] This provides support for the theory that another protein may be associated with TSP-1 and its receptor, or that the receptor is released and rebound to the membrane of the cell by another protein.

| Substance | extent of receptor binding, % of buffer control (receptor-TSP-1 complex [1]) [%] | binding to the receptor (receptor) | peptide competition of TSP-1 receptor binding [2] | reversal of the angiocidin inhibition of viability [3] | cell growth, factor alone ([4]; FGF 2 ng/ml, TSP-1 20 μg/ml) | reversal of the angiocidin inhibition of viability ([4]; angiocidin 37 μg/ml plus FGF 2 ng/ml or TSP-1 20 μg/ml) | direct binding to immobilized TSP-1 (TSP-1) | inhibition of receptor binding to immobilized TSP-1 (receptor-TSP-1 complex [5]) | cell adhesion to immobilized peptide (B16-F10 Melanoma Cells) |
| --- | --- | --- | --- | --- | --- | --- | --- | --- | --- |
| Cys(Acm)-Ser-Val-Thr-Cys(Acm)-Gly (C(Acm)SVTC(Acm)G) | 47 | bind to the receptor | inhibited binding |  |  |  |  |  |  |
| TSP-1: Thrombospondin, a cell adhesive protein and matrix molecule |  | bind to the receptor |  | can ameliorate some of the inhibition of angiocidin | stimulated cell growth above control | neither the addition of FGF or TSP-1 reversed the inhibition of angiocidin |  |  |  |
| VCHSKTR |  |  |  |  |  |  | bind directly to the immobilized TSP-1 | inhibits binding of the receptor with the immobilized TSP-1 | cause the cells to adhere to the plates, with similar affinity to the positive controls fibronectin and TSP-1 |
